Data as given in paper PMC10673952.

Tests used:
[1] = biological target: T1, FimA-FimAt (the two subunits of the ternary FimCAA complex) (E. coli) (UniProt P04128); assay: chaperone exchange kinetics followed by analytical cation exchange chromatography; 4 μM complex incubated with a 9-fold molar excess (36 μM) of the differently tagged FimC (untagged FimC against FimCHis complexes, FimCHis against FimCA and FimCAA); 20 mM MES-NaOH pH 6.0, 37 °C; single-exponential fit
T1 sequence (P04128 24-182, looked up): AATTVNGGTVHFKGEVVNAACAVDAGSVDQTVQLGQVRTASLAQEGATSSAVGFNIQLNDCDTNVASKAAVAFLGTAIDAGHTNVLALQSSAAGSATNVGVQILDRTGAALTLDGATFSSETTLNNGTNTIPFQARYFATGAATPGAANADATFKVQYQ

[2] = biological target: Fluorescein-labeled FimDN (E. coli); assay: stopped-flow fluorescence kinetics; fluorescein-labeled FimDN (0.4 μM) mixed with different concentrations of FimCI; 23 °C, 20 mM Tris-HCl pH 8.0; traces fitted globally to second-order binding and first-order dissociation
Chain of Fluorescein-labeled FimDN (E. coli) (P30130 46-170 limits assumed): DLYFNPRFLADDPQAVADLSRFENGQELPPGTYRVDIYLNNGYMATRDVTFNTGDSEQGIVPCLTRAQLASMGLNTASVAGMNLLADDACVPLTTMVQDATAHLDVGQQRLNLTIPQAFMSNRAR

Chain of FimC-FimI complex (FimCI) (P31697 37-241): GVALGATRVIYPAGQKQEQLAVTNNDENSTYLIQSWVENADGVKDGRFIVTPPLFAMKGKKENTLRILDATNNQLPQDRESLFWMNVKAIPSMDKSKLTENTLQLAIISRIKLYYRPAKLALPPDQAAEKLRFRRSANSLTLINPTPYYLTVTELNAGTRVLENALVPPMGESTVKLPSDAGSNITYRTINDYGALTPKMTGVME
Chain of FimC-FimI complex (FimCI) (P39264 20-179): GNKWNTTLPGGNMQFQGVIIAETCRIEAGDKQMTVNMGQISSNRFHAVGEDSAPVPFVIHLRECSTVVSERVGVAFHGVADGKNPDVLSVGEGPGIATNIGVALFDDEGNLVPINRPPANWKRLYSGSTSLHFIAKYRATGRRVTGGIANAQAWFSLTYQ
Chain of FimC (P31697 37-241): as the sequence (P31697 37-241) above

Row | Substance | dissociation half-life [1] | koff [2] | kon [2]
1 | FimC (from UniProt P31697 37-241) (natural protein) | 17.7 min | – | –
2 | FimC-FimI complex (FimCI) (from UniProt P31697 37-241; P39264 20-179) | – | 94 s⁻¹ | 1.45e+08 M⁻¹ s⁻¹
